Data from patent US20080233097A1, “Phosphorylation Site Of Mitogen-Activated Protein Kinases, Modified Proteins And Applications” (UNIVERSIDAD AUTONOMA DE MADRID, priority 2005, published 2008).
“And” between values parts separate entries of the source, which are not always exact repeats. Equal entries are not always repeated.

Experiments:
p38 (GST-p38) = molecular target: T1, p38 (GST-p38) (Mus musculus, UniProt P47811); assay: p38 phosphorylation by GRK2 in vitro (kinetic characterization); assay type: biochemical
T1 construct: with whole p38α in the same conditions as described in section A; made in house; host or cells: E. coli (GST-p38); Sf9 cells with baculovirus (GRK2)
T1 sequence (P47811 whole entry): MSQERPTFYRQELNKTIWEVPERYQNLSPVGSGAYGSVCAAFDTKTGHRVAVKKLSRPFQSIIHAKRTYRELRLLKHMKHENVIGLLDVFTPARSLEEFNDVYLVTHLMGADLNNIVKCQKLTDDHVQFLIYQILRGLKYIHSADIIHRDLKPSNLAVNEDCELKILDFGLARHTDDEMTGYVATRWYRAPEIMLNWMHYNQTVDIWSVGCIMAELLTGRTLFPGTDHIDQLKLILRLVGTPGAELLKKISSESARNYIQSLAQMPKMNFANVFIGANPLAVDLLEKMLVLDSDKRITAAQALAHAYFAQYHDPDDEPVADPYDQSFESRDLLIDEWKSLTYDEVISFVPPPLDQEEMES
Method: Normally, the phosphorylation reactions are left to take place for 30 minutes at 30° C. In the case of two-dimensional electrophoresis or of the samples intended for proteomic sequencing, the reaction extends to 1 or 2 hours.
The Michaelis-Menten behaviour of the kinases was assumed for calculating the kinetic constants of the enzymatic reactions. The graphs were made with the “Kaleidagraph” program, provided with an algorithm capable of deducing the kinetic parameters: Michaelis-Menten constant (Km) and maximum speed (Smax=So (nmol of PO4^3-incorporated. mg of enzyme^−1minute^−1)

Flag-p38α = molecular target: T2, Flag-p38α (Mus musculus, UniProt P47811); assay: […] peptide phosphorylation by immunoprecipitated Flag-p38; assay type: biochemical; details: HEK 293 cells transfected with Flag-p38α, MKK6CAM and 1 or 2 μg pCDNA3-GRK2
T2 construct: expressed in transfected cells; host or cells: HEK 293 cells, co-transfected with pCDNA3-MKK6CAM and with or without pCDNA3-GRK2
T2 sequence (P47811 whole entry): as above

3T3-L1 cells = assay: adipocyte differentiation of 3T3-L1 (Oil Red staining, adipocyte count); assay type: cell-based; details: 3T3L1 lines stably transfected, day 15
Excerpt: 3T3L1 lines stably transfected with pCDNA3-GRK2 and pCDNA3-GRK2K220R were made. GRK2 (anti-GRK2) expression controls obtained in cell lines, compared to 3T3L1 levels, are included. The cells were subjected to a standard differentiation treatment and on day 15 of the latter, the cells were fixed with formalin and stained with Oil Red, a lipophilic coloring which binds to the fats accumulated by the adipocytes. The cells with adipocytic phenotype (in red) were counted under microscope in a total of 25 fields. Representative photographs of two independent experiments are shown in duplicate. A photo of the 3T3L1 cells, free of stimulation with insulin during the differentiation process (control), is also included. The graph reflects the adipocyte count (±SEM) in these experiments.
The cell culture was carried out with 10% DMEM medium of NCS serum. However, the entire differentiation process which is described below must be performed in depleted AXC serum (ion exchange resin) by means of successive adsorptions of fetal calf serum on an anion exchange resin and on active carbon. AXC serum was provided by the kitchen service of the Instituto of Investigaciones Biomédicas (Biomedical Research Institute). The cells are grown until their confluence and are plated (5×10^5 in P-100) in DMEM-10% AXC medium, supplemented with 4 μM of biotin (Sigma). The following day, the medium is replaced with fresh medium. The cells are grown another three days, until confluence is reached again, that day is called day “0”. On day 0 of differentiation, the cells are cultured in a medium containing: 0.5 μM dexamethasone (Sigma), 0.5 mM 3-isobutyl-1-methylxanthine (IMBX, of Sigma) and 1 μM insulin (Sigma) and in which they will remain for another three days. […] From day 6 to day 15, the adipogenesis was analyzed by staining with Oil Red, a red coloring of lipophilic constitution which binds to the drops of fat accumulated by the adipocytes in their cytoplasm. […] The cells are counted in a total of 25 fields per each experimental plate.

Flag-p38 = assay: GRK2 overexpression: p38 activation by MKK6CAM in HEK 293 cells; assay type: cell-based, human; details: increasing doses of pCDNA3-GRK2 (0 to 1 μg)
Method: FIG. 3A: HEK 293 cells, normally seeded in multiwell plates with 6 or 12 wells (M6 or M12), were transiently transfected with pCDNA3-Flag-p38α, pCDNA3-MKK6CAM, and with increasing amounts of the pCDNA3-GRK2 vector. In this experiment, M6 plates were used and the DNA amounts introduced were: 100 ng of Flag-p38, 100 ng of MKK6CAM, and 0 to 1 μg of GRK2. In all points, the total amount of DNA was completed with pCEFL-EGFP and with empty pCDNA3 instead of pCDNA3-MKK6CAM, in the case of the control (CTRL). After 48 hours, the cells were harvested by lysing them in M2 buffer. […] The p38 activation state was evaluated with anti-phospho-p38, of Cell Signaling, and after giving off the antibodies of the first immunodetection, it was detected with total anti-p38, of the same company. […] The Flag-p38 activation state was determined in the same way as in A. Furthermore, the correct MKK6CAM expression was assured with the anti-MKK6/SKK3 antibody of Upstate Biotechnology. […]
The HE 293 cells, generally subjected to starvation (medium without serum) of a variable duration: 2 hours in the case of p38 and all night in the case of ERK, were stimulated and, after processing the lysate cells, the immunodetection of the phosphoproteins was carried out with the phospho-specific antibodies of the activation segments of both proteins. […] The quantification of the bands was carried out in a laser densitometer. […]

sinucleins = details: depending on the subtypes; cited from earlier work
β-tubulins = details: depending on the subtypes; cited from earlier work
[1] = tested on: phosducin and the protein similar to phosducin (PhD and PhLP); details: cited from earlier work
p38 = molecular target: T3, p38 (Mus musculus, UniProt P47811); assay: effect of heparin on catalytic activity of p38; assay type: biochemical
T3 construct: with whole p38α in the same conditions as described in section A; made in house; host or cells: E. coli
T3 sequence (P47811 whole entry): as above
Excerpt: Subsequently, the inventors decided to study the possible interactions between GRK2 and p38. The first experimental approach was the phosphorylation assays of both proteins. […] These experiments were completed with negative controls of GST phosphorylation by GRK2 and by inspecting the binding area between the GST portion and the ORF of p38.

[2] = molecular target: T4, GST-280-360p38 (last 80 amino acids of p38α fused to GST, from pDEST15)
T4 chain: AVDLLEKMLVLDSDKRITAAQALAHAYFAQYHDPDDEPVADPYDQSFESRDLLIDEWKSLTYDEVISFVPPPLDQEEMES

[3] = molecular target: T5, GST-p38 (wild type p38α fused to GST, from pGEX2T-p38α)
T5 chain: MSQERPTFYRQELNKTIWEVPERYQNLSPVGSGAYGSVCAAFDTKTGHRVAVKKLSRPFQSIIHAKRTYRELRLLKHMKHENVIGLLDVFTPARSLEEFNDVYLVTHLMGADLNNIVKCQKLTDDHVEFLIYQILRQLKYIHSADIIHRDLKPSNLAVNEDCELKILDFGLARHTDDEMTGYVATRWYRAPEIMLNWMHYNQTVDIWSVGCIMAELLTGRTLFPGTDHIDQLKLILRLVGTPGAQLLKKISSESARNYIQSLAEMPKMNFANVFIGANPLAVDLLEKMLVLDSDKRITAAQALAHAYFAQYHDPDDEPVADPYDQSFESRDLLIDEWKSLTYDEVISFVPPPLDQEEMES

GRK2: G protein-coupled receptor kinase 2; recombinant, purified by the Baculovirus system; phosphorylates Thr123 of p38
maximum speed (Smax) (p38 (GST-p38); GRK2 25 nM, p38 12.5 to 400 nM, 15 minutes): 0.9 nmol of PO4^3-incorporated per mg GRK2^−1 minute^−1
Km (p38 (GST-p38); GRK2 25 nM, p38 12.5 to 400 nM, 15 minutes, 30° C., read-out: Michaelis-Menten constant (Km)): 0.0796 µM and 0.08 µM
stoichiometry of phosphorylation (p38 (GST-p38); at least three quantifications by Cerenkov): 0.4-0.8 mol Pi/mol p38
average time for reaching 50% of the maximum phosphorylation (p38 (GST-p38); time course 0 to 90 minutes): 15 min
catalytic activity of immunoprecipitated p38 on APR peptide (Flag-p38α): dimmed
acquisition of the adipocytic morphology mediated by insulin (3T3-L1 cells): inhibits the acquisition of the adipocytic morphology mediated by insulin
p38 activation dependent on MKK6CAM (Flag-p38): decreased more as more amounts of GRK2 were expressed
Km (sinucleins): 1 to 2 µM
Km (β-tubulins): 1 to 2 µM
Km [1]: 0.04 to 0.1 µM

heparin
effect on catalytic activity of p38 (p38): does not affect the catalytic activity of p38

B1: Recombinant GRK2 purified by the Baculovirus system (from infected Sf9 cells) (protein)
chain: MADLEAVLADVSYLMAMEKSKATPAARASKKILLPEPSIRSVMQKYLEDRGEVTFEKIFSQKLGYLLFRDFCLKHLEEAKPLVEFYEEIKKYEKLETEEERLVCSREIFDTYIMKELLACSHPFSKSAIEHVQGHLVKKQVPPDLFQPYIEEICQNLRGDVFQKFIESDKFTRFCQWKNVELNIHLTMNDFSVHRIIGRGGFGEVYGCRKADTGKMYAMKCLDKKRIKMKQGETLALNERIMLSLVSTGDCPFIVCMSYAFHTPDKLSFILDLMNGGDLHYHLSQHGVFSEADMRFYAAEIILGLEHMHNRFVVYRDLKPANILLDEHGHVRISDLGLACDFSKKKPHASVGTHGYMAPEVLQKGVAYDSSADWFSLGCMLFKLLRGHSPFRQHKTKDKHEIDRMTLTMAVELPDSFSPELRSLLEGLLQRDVNRRLGCLGRGAQEVKESPFFRSLDWQMVFLQKYPPPLIPPRGEVNAADAFDIGSFDEEDTKGIKLLDSDQELYRNFPLTISERWQQEVAETVFDTINAETDRLEARKKTKNKQLGHEEDYALGKDCIMHGYMSKMGNPFLTQWQRRYFYLFPNRLEWRGEGEAPQSLLTMEEIQSVEETQIKERKCLLLKIRGGKQFVLQCDSDPELVQWKKELRDAYREAQQLVQRVPKMKNKPRSPVVELSKVPLIQRGSANGL
phosphorylation by GRK2 (32P incorporation) [2]: after purifying the fusion protein and testing it against GRK2, no trace whatsoever of phosphorylation was obtained
phosphorylation by GRK2 (32P incorporation) (GST-Mxi2, Q16539): With comparable amounts of p38α, Mxi2 and MxiΔ17, the last two were not phosphorylated by GRK2
phosphorylation by GRK2 (32P incorporation) (GST-Mxi2Δ17, Q16539): With comparable amounts of p38α, Mxi2 and MxiΔ17, the last two were not phosphorylated by GRK2
Km of p38 phosphorylation by GRK2 [3]: the value of the Km=80 nM
Michaelis-Menten constant (Km) of GST-p38 phosphorylation by GRK2 [3]: Km=79.56 nM
phosphorylation by GRK2 (32P incorporation) (GST-p38T123A): none of the two mutant is a GRK2 substrate
phosphorylation by GRK2 (32P incorporation) (GST-p38T123D): none of the two mutant is a GRK2 substrate
